The data set concerns the molecule itself. Briefly: SEC; Superdex 200 HR 10/30, calibrated; 240 μl of concentrated Talon eluate; 20 mM Trizma, 150 mM NaCl, 0.02% DDM; 0.5 ml/min; fractions immunoblotted for the His-tag. In general terms: Size exclusion chromatography separates by hydrodynamic size, large species first.

B1: B. subtilis TatAd with a C-terminal His-tag (natural protein, UniProt O31467 1-70, looked up)
chain: MFSNIGIPGLILIFVIALIIFGPSKLPEIGRAAGRTLLEFKSATKSLVSGDEKEEKSAELTAVKQDKNAG
notes: TatAd, Bacillus subtilis, product of the tatAd-his gene in pBAD24 (pBAd-His); also called TatAd-His; TatAd complex; not shown: His6, C-terminal, kept
As to B1, the binding result is recorded as “binds”.

The record behind these values is publication PMC3988878, “Ultrastructural characterisation of Bacillus subtilis TatA complexes suggests they are too small to form homooligomeric translocation pores” (Biochimica et Biophysica Acta, 2013).
